Key:
human IL-21 receptor = human IL-21 receptor (human, UniProt Q9HBE5 20-538); assay: BLI
murine IL-21R = murine IL-21R (murine, UniProt Q9JHX3 20-529); assay: BLI
[1] = target: T1, human common cytokine receptor γ chain (human, UniProt P31785 23-369); assay: BLI; in presence of hIL-21R (hIL-21R/hγc)
T1 chain: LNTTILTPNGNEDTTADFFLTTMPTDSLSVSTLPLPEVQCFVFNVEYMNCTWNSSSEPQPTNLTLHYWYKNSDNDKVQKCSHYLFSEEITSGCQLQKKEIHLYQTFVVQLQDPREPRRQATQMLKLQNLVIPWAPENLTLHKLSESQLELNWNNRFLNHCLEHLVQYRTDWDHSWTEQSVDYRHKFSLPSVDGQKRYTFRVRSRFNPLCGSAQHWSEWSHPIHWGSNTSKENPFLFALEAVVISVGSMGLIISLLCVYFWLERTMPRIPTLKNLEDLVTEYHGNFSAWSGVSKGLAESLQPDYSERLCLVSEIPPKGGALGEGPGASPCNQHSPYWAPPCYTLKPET

murine γc = target: T2, murine γc (murine, UniProt P34902 23-369); assay: BLI; in presence of mIL-21R (mIL-21R/mγc)
T2 chain: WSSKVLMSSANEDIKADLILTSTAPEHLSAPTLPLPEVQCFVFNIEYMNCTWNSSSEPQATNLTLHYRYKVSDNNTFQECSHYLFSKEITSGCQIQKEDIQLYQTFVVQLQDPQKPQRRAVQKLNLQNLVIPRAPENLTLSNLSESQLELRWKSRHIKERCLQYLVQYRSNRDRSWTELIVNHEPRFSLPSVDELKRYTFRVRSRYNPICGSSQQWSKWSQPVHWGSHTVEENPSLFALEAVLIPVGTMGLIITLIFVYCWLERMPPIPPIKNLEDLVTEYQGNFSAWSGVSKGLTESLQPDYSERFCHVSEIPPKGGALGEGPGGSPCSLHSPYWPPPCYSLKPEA

human IL-21 receptor, sequence (Q9HBE5 20-538): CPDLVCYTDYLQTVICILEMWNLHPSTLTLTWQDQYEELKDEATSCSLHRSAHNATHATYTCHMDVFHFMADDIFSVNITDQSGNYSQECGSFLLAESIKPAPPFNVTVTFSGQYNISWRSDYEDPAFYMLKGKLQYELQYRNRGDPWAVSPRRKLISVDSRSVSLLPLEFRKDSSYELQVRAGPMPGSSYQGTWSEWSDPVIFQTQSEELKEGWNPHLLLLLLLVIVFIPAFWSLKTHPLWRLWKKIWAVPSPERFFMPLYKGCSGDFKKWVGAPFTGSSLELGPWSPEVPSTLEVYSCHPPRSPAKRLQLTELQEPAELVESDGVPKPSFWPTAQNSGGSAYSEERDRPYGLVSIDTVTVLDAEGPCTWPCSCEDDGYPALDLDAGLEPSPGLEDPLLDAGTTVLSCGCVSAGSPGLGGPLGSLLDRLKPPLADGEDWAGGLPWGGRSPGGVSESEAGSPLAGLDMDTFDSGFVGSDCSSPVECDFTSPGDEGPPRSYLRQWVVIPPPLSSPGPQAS

B1: 21h10 (designed binder)
chain: DEEELKEIMKEAAECARKELEKLDNTDEDTRWLKITLKKIVRMANRIVRMREREADSKRFEIRMRGLIDIADHVKREFASEDLKEVMERAKSAAQKALGRWL
In the case of B1, the Kd (human IL-21 receptor) is reported as 0.0737 nM, the Kd (murine IL-21R) is reported as 5.17 nM and the Kd [1] is reported as 85.5 nM. The Kd (murine γc) was 93.3 nM.
